# Reference: patent publication US20170081400A1 (CEPHALON, published 2017)
# Positions count from the first letter of the chain named.
# T1: human TL1A extracellular domain with N-terminal HIS and FLAG tag (human, UniProt O95150 72-251)
# T1 construct: whole entry named. ~70 kDa fraction purified by gel filtration
# T1 sequence: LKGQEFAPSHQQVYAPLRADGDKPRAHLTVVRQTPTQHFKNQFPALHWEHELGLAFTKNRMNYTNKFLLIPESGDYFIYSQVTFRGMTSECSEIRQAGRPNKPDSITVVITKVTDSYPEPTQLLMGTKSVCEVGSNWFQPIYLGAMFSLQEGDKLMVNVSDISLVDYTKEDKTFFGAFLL
# T2: human TL1A extracellular domain with N-terminal HIS and FLAG tag (human) (UniProt O95150)
# T2 sequence: T1 sequence
# B1: 320-263 (antibody, human IgG1, name in Kabat numbering, V domains shown)
# VH: QVQLVQSGAEVKKPGASVKVSCKASGYTFTSYDINWVRQAPGQGLEWMGWLNPNSGNTGYAQKFQGRVTMTADRSTSTAYMELSSLRSEDTAVYYCAREVPETAAFEYWGQGTLVTVSS
# VL: QSVLTQPPSVSGAPGQRVTISCTSSSSDIGKGLGVHWYQQLPGTAPKLLIEGYYNRPSGVPDRFSGSKSGTSASLTITGLLPEDEGDYYCQSYDGTLSALFGGGTKLTVLG
# notes: human IgG1, lambda
# B2: 320-282 (antibody, human IgG1, name in Kabat numbering, V domains shown)
# VH: B1 VH
# VL: B1 VL with K31A, L33W
# notes: human IgG1, lambda
# B3: 320-303 (antibody, human IgG1, name in Kabat numbering, V domains shown)
# VH: B1 VH
# VL: B1 VL with K31A, H36S
# notes: human IgG1, lambda
# B4: 320-304 (antibody, human IgG1, name in Kabat numbering, V domains shown)
# VH: B1 VH
# VL: B1 VL with K31A, H36Q
# notes: human IgG1, lambda
# B5: 320-309 (antibody, human IgG1, name in Kabat numbering, V domains shown)
# VH: B1 VH
# VL: B1 VL with K31A, H36Y
# notes: human IgG1, lambda
# B6: 320-267 (antibody, human IgG1, V domains shown)
# VH: B1 VH
# VL: B1 VL with K31A, G32A
# notes: human IgG1, lambda
# B7: 320-305 (antibody, human IgG1, name in Kabat numbering, V domains shown)
# VH: B1 VH
# VL: B1 VL with K31A, H36D
# notes: human IgG1, lambda
# B8: 320-296 (antibody, human IgG1, name in Kabat numbering, V domains shown)
# VH: B1 VH
# VL: B1 VL with K31A, V35D
# notes: human IgG1, lambda
# B9: 320-278 (antibody, human IgG1, V domains shown)
# VH: B1 VH
# VL: B1 VL with K31A, L33Q
# notes: human IgG1, lambda
# B10: 320-308 (antibody, human IgG1, name in Kabat numbering, V domains shown)
# VH: B1 VH
# VL: B1 VL with K31A, H36W
# notes: human IgG1, lambda
# B11: 320-269 (antibody, human IgG1, name in Kabat numbering, V domains shown)
# VH: B1 VH
# VL: B1 VL with K31A, G32Q
# notes: human IgG1, lambda
# B12: 320-299 (antibody, human IgG1, name in Kabat numbering, V domains shown)
# VH: B1 VH
# VL: B1 VL with K31A, V35L
# notes: human IgG1, lambda
# B13: 320-271 (antibody, human IgG1, name in Kabat numbering, V domains shown)
# VH: B1 VH
# VL: B1 VL with K31A, G32H
# notes: human IgG1, lambda
# B14: 320-281 (antibody, human IgG1, name in Kabat numbering, V domains shown)
# VH: B1 VH
# VL: B1 VL with K31A, L33K
# notes: human IgG1, lambda
# B15: 320-293 (antibody, human IgG1, name in Kabat numbering, V domains shown)
# VH: B1 VH
# VL: B1 VL with K31A, V35A
# notes: human IgG1, lambda
# B16: 320-306 (antibody, human IgG1, name in Kabat numbering, V domains shown)
# VH: B1 VH
# VL: B1 VL with K31A, H36K
# notes: human IgG1, lambda
# B17: 320-276 (antibody, human IgG1, name in Kabat numbering, V domains shown)
# VH: B1 VH
# VL: B1 VL with K31A, L33A
# notes: human IgG1, lambda
# B18: 320-310 (antibody, human IgG1, name in Kabat numbering, V domains shown)
# VH: B1 VH
# VL: B1 VL with K31A, Q91A
# notes: human IgG1, lambda
# B19: 320-277 (antibody, human IgG1, V domains shown)
# VH: B1 VH
# VL: B1 VL with K31A, L33S
# notes: human IgG1, lambda
# B20: 320-297 (antibody, human IgG1, name in Kabat numbering, V domains shown)
# VH: B1 VH
# VL: B1 VL with K31A, V35H
# notes: human IgG1, lambda
# B21: 320-292 (antibody, human IgG1, name in Kabat numbering, V domains shown)
# VH: B1 VH
# VL: B1 VL with K31A, G34Y
# notes: human IgG1, lambda
# B22: 320-294 (antibody, human IgG1, name in Kabat numbering, V domains shown)
# VH: B1 VH
# VL: B1 VL with K31A, V35S
# notes: human IgG1, lambda
# B23: 320-279 (antibody, human IgG1, name in Kabat numbering, V domains shown)
# VH: B1 VH
# VL: B1 VL with K31A, L33D
# notes: human IgG1, lambda
# B24: 320-275 (antibody, human IgG1, name in Kabat numbering, V domains shown)
# VH: B1 VH
# VL: B1 VL with K31A, G32Y
# notes: human IgG1, lambda
# B25: 320-295 (antibody, human IgG1, name in Kabat numbering, V domains shown)
# VH: B1 VH
# VL: B1 VL with K31A, V35Q
# notes: human IgG1, lambda
# B26: 320-298 (antibody, human IgG1, name in Kabat numbering, V domains shown)
# VH: B1 VH
# VL: B1 VL with K31A, V35K
# notes: human IgG1, lambda
# B27: 320-280 (antibody, human IgG1, name in Kabat numbering, V domains shown)
# VH: B1 VH
# VL: B1 VL with K31A, L33H
# notes: human IgG1, lambda
# Target: T1, human TL1A extracellular domain with …
# Test: SPR run 3; supernatant on Protein A; TL1A 10 ug/mL; timepoint 590
# Excerpt: (§1) 1.5. Antibody expression and antigen binding as determined by SPR. Using a CM5 sensor chip (GE Healthcare) Protein A (Pierce) was coupled to the chip surface using an amine coupling kit (GE Healthcare). Protein A was coupled on flow cell 1 and 2 (or alternatively 3 and 4) using a BIACORE® T200. […] The amount of supernatant or purified protein (as well as the concentration) injected during the capture stage varied between runs and is specified in the header of the Tables 3-11. At the end of injection of the supernatant or purified antibody the change in response units was measured. This value was reported as Capture Level in Tables 3-11. […] The response units were measured prior to the end of the dissociation phase. […] The sensorgrams were double referenced (flow cell 2 is subtracted from flow cell 1 and a buffer blank). As there were a large number of antibody variants to screen, these were screened across different runs (Tables 3-11). […] A summary of the conditions used in each run is below:
# (§2) 2.1. […] In some experiment the antibodies were purified using Protein A chromatography (See 1.4) and purified antibodies were used in BIACORE® (GE Healthcare) experiments.
row,TL1A Binding Level (Late) [RU],Binder
1,123,B1
2,16,B2
3,32,B3
4,82,B4
5,40,B5
6,297,B6
7,10,B7
8,104,B8
9,374,B9
10,73,B10
11,93,B11
12,13,B12
13,30,B13
14,6,B14
15,86,B15
16,133,B16
17,215,B17
18,62,B18
19,361,B19
20,77,B20
21,94,B21
22,61,B22
23,128,B23
24,10,B24
25,94,B25
26,100,B26
27,211,B27

# Target: T1, human TL1A extracellular domain with …
# Test: SPR run 3; supernatant on Protein A; TL1A 10 ug/mL; timepoint 59
# Excerpt: as §1, §2
row,TL1A Binding Level (Early) [RU],Binder
1,121,B1
2,75,B2
3,71,B3
4,103,B4
5,47,B5
6,299,B6
7,34,B7
8,118,B8
9,389,B9
10,106,B10
11,126,B11
12,51,B12
13,106,B13
14,22,B14
15,104,B15
16,147,B16
17,244,B17
18,70,B18
19,387,B19
20,95,B20
21,111,B21
22,79,B22
23,144,B23
24,44,B24
25,109,B25
26,114,B26
27,228,B27

# Target: T2, human TL1A extracellular domain with N-terminal HIS and FLAG tag (human)
# Test: cell-based or functional assay
"Antibody IC50, TL1A induced caspase potency assay in TF-1 cells [ng/mL]","Fold improvement over 320-179, TL1A induced caspase potency assay in TF-1 cells [fold]",Binder
3,3,B1
5,4,B20
6,3,B27
